Here are results for eight molecules from paper PMC8154891, “TAPBPR promotes antigen loading on MHC-I molecules using a peptide trap” (Nature Communications, 2021).

Several values for one entry are separate records, joined by “and”; a condition that tells them apart may be missing. Equal entries are not always repeated.

As a reminder, the stoichiometry N is a count of units in the complex or per binding partner.

Series [1] addresses T1, HLA-A*02:01/hβ2m (empty MHC-I released from TAPBPR^WT complex) (Homo sapiens, UniProt P04439, D140Y/D185E/D98H/E176V/E277Q/G131W/G231S/I119V/I121R/I166T/I218V/L300P/L318F/N151K/N90K/P208A/P217A/Q86G/Q94H/R138H/R169H/T345S).
T1 construct: DNA plasmid constructs encoding the luminal domain of human HLA-A*02:01 (heavy chain); made in house; TAPBPR: Drosophila S2 cells
The series can be described thus: ITC, KD2,app: peptide titrated into peptide-deficient HLA-A*02:01/hβ2m/TAPBPR^WT complex, no excess TAPBPR. Conditions: ~50–100 μM peptide into ~15 μM peptide-deficient complex, 50 mM NaCl, 20 mM sodium phosphate pH 7.2, one-site fit, one technical replicate, error from fit. In kind it is binding. (Isothermal titration calorimetry measures the heat released or taken up as one component is titrated into another.)

Series [2] addresses T2, HLA-A*02:01/hβ2m (empty MHC-I released from TAPBPR^ΔG24-R36 complex) (Homo sapiens, UniProt P04439, D140Y/D185E/D98H/E176V/E277Q/G131W/G231S/I119V/I121R/I166T/I218V/L300P/L318F/N151K/N90K/P208A/P217A/Q86G/Q94H/R138H/R169H/T345S).
T2 construct: DNA plasmid constructs encoding the luminal domain of human HLA-A*02:01 (heavy chain); made in house
The series can be described thus: ITC, KD2,app: peptide titrated into peptide-deficient HLA-A*02:01/hβ2m/TAPBPR^ΔG24-R36 complex, no excess TAPBPR. Conditions: ~50–100 μM peptide into ~15 μM peptide-deficient complex, pH 7.2, one-site fit, one technical replicate, error from fit. Type of series: binding.

Series [3] deals with T3, peptide-deficient HLA-A*02:01/hβ2m/TAPBPR^WT complex (Homo sapiens, UniProt P04439, D140Y/D185E/D98H/E176V/E277Q/G131W/G231S/I119V/I121R/I166T/I218V/L300P/L318F/N151K/N90K/P208A/P217A/Q86G/Q94H/R138H/R169H/T345S).
T3 construct: DNA plasmid constructs encoding the luminal domain of human HLA-A*02:01 (heavy chain); made in house; TAPBPR: Drosophila S2 cells
Briefly: ITC, KD4: peptide titrated into empty HLA-A*02:01/TAPBPR^WT complex with excess TAPBPR. Type of series: binding. Conditions: ~150–200 μM peptide into ~15 μM peptide-deficient complex and 50 μM excess TAPBPR, pH 7.2, one-site fit, error from fit.

The target of series [4] is T4, peptide-deficient HLA-A*02:01/hβ2m/TAPBPR^ΔG24-R36 complex (Homo sapiens, UniProt P04439, D140Y/D185E/D98H/E176V/E277Q/G131W/G231S/I119V/I121R/I166T/I218V/L300P/L318F/N151K/N90K/P208A/P217A/Q86G/Q94H/R138H/R169H/T345S).
T4 construct: DNA plasmid constructs encoding the luminal domain of human HLA-A*02:01 (heavy chain); made in house
Briefly: ITC, KD4: peptide titrated into empty HLA-A*02:01/TAPBPR^ΔG24-R36 complex with excess TAPBPR. In kind it is binding. Conditions: ~150–200 μM peptide into ~15 μM peptide-deficient complex and 50 μM excess TAPBPR, pH 7.2, one-site fit, error from fit.

For a further series, the system named is HLA-A*02:01/hβ2m. Conditions: DSF, 7 μM HLA-A*02:01/hβ2m in complex with the peptide, 10× SYPRO orange, 1 °C/min, pH 7.2; n = 3 technical replicates. A general note: DSF heats the sample and reads unfolding from a dye or from intrinsic fluorescence.
Series [5] addresses peptide-deficient (empty) HLA-A*02:01/hβ2m (human). The series can be described thus: ITC.
For series [6], the target named is TAMRA-TAX9 in complex with HLA-A*02:01 (hβ2m) (human | HTLV-1). The series can be described thus: fluorescence polarisation. In general terms: Fluorescence polarisation rises when a labelled molecule tumbles more slowly, as on binding a larger partner.
In series [7] the target is TAPBPR^WT (TAP-binding protein related, wild-type, luminal domain) (human). The series can be described thus: ITC.
The target in series [8] is TAPBPR^ΔG24-R36 (luminal domain, deletion of residues G24-R36) (human). The series can be described thus: ITC.
The next series deals with TAX8/HLA-A*02:01/hβ2m. The series can be described thus: FP, KD3: TAPBPR titrated into TAMRA-TAX9 and TAX8/HLA-A*02:01/hβ2m. In kind it is binding, human. Conditions: TAPBPR (0–80 μM) titrated into 1 nM TAMRA-TAX9 and 50 nM TAX8/HLA-A*02:01/hβ2m; 25 °C, pH 7.2, 0.05% tween-20; read-out: KD3 from FP.
The next series concerns the target HLA-A*01:01 (Homo sapiens, UniProt P04439, A114D/A174V/A182V/D101N/D185E/E176A/E190D/L180R/Q94H/R68K/S129P/T187R/V100A/V91M/W191G). Conditions: yeast-displayed TAPBPR, flow cytometry.
A further series concerns the target MHC-I. Conditions: read-out: estimated KD of the MHC-I/TAPBPR interaction; SPR experiments of an analogous system; cited from earlier work.

Take `CC[C@H](C)[C@H](NC(=O)[C@H](CCC(=O)O)NC(=O)[C@H](CC(C)C)NC(=O)[C@H](CC(C)C)NC(=O)[C@@H](N)CCCCN)C(=O)N1CCC[C@H]1C(=O)N[C@@H](CC(=O)O)C(=O)N1CCC[C@H]1C(=O)N[C@@H](CC(=O)O)C(=O)N[C@@H](CCCCN)C(=O)N[C@@H](CC(N)=O)C(=O)N[C@@H](Cc1c[nH]c2ccccc12)C(=O)N[C@@H](C)C(=O)N[C@H](C(=O)N[C@@H](CC(C)C)C(=O)O)[C@@H](C)O` [KLL15]: the Kd came to 383 ± 22 nM in series [1], 334 ± 20 nM in [2], 21.6 ± 7 µM in series [3] and 49.5 ± 8.6 µM in series [4].

In the case of LLFGGGGYPVYV [TAX12], in the series on HLA-A*02:01/hβ2m, the “Tm of pMHC-I complex” value was 53.2 °C.

For LLFGGYPVYV [TAX10], in the series with HLA-A*02:01/hβ2m, the “Tm of pMHC-I complex” value was 58.9 °C.

Take “TAPBPR^WT (TAP-binding protein related, wild-type, luminal domain) (domain or fragment)”: the Kd in series [5] is 37.4 nM and 30.6 nM and 38.8 nM; in [6], 2000 nM.

As to “TAPBPR^ΔALAS (luminal domain, deletion of residues A29-S32) (domain or fragment)”, the Kd in series [6] worked out at 2000 nM.

Turning to “TAPBPR^ΔG24-R36 (luminal domain, deletion of residues G24-R36) (domain or fragment)”, the Kd was 13.9 nM and 11.1 nM and 14.2 nM in series [5]; 2000 nM in series [6].

On to “TAX9/HLA-A*02:01/hβ2m (from UniProt P61769 21-119) (peptide-MHC)”, for which the Kd came to 1900 nM in series [7] and 1800 nM in [8]. In series [7], this molecule yielded a stoichiometry N of 1.02.

B1: TAPBPR WT: wild-type human TAPBPR; luminal domain from S2 cells in vitro, FLAG-tagged full length in Expi293F cells (protein, UniProt Q9BX59 19-468, looked up)
Tapasin-related protein: AETKPHPAEGQWRAVDVVLDCFLAKDGAHRGALASSEDRARASLVLKQVPVLDDGSLEDFTDFQGGTLAQDDPPIIFEASVDLVQIPQAEALLHADCSGKEVTCEISRYFLQMTETTVKTAAWFMANMQVSGGGPSISLVMKTPRVTKNEALWHPTLNLPLSPQGTVRTAVEFQVMTQTQSLSFLLGSSASLDCGFSMAPGLDLISVEWRLQHKGRGQLVYSWTAGQGQAVRKGATLEPAQLGMARDASLTLPGLTIQDEGTYICQITTSLYRAQQIIQLNIQASPKVRLSLANEALLPTLICDIAGYYPLDVVVTWTREELGGSPAQVSGASFSSLRQSVAGTYSISSSLTAEPGSAGATYTCQVTHISLEEPLGASTQVVPPERRTALGVIFASSLFLLALMFLGLQRRQAPTGLGLLQAERWETTSCADTQSSHLHEDRTARVSQPS
modifications: FLAG tag
As to B1, the Kd was ~2000 nM at TAX8/HLA-A*02:01/hβ2m and ~190 nM on MHC-I. Moreover, the “binding of HLA-A*01:01 tetramers” value with HLA-A*01:01 was “No binding”.
